Source: US20230242902A1, “A HIGHLY ERROR-PRONE […] R[…] FOR TARGETED CONTINUOUS EVOLUTION IN VIVO” (The Regents of the University of California, priority 2017, published 2023)

Tested on: p1
Experiment: p1 copy number by p1-encoded mKate2 fluorescence
Type: cell-based, S. cerevisiae
Conditions: OR-Y24, measured in triplicate
In short: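 p1 copy number came from mKate2 fluorescence of saturated OR-Y24 cultures (triplicates, regrown from 1:10,000), read by flow cytometry and converted through a linear curve calibrated by qPCR (LEU2 against genomic LEU3). For small-scale tests, OD600-normalized plate-reader fluorescence (588/633 nm) was scaled to a w.t. TP-DNAP1 control.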

Molecule | Mean fold-increase over w.t. (p1 copy number) [fold]
T706G: TP-DNAP1 variant (protein) MDYKDKALNDLRNVYADFDSLPLDFRQILIKDRATLLQKEDVEKKILERQEDAKKYAEYLKQSEIPERISLPNIKRHKGVSISFEETSEDMVLEPRPFIFDGLNIRCFRRETIFSLKNKILNMVKESSSFKNVSRQSVSFMYFKIFNKGKVIASTKSVNIYEDKIDERLEDLCNNFDDVLKKIIDVTYGYESLFVSETYSYVIFYAKSIYFPQPRCVNNWGNNIPNILTFDSFKLFTANKNNVSCIKQCSRFLWQKDFNTLEEMIEYKNGNICIVTPQLHINDVRDIKSFNDIRLYSESPIKTFSVIDNTITYLFYFKEHLGVIFNITKSRHDRRVTKFSPLSKFSDVKNITVCFDIESYFDPEKESNQVNIPFICCASIIYNKVIGNIVDFEGRDCVAQMIEYVVDICGELNISSVELIAHNGGGYDFHYILSSMYNPAAIKNILIRNNSFISFNFAHDGVKFSVKDSYSFLLCSLANASKAFLNEETFKKTDFPHHDLKTADDLYKVYKEWSSVNTEINHVVEKEKLLITSEHIVNFTKNDKSKTLIEWSKDYCRNDVLVLSKVWLEFKNAVEDIFNCELVDQTMTLAGLSYKLFQANMPFDVELRHPNKEDYFNMREALIGGRCISVNGIYKDVLCLDVKSLYPASMAFYDQPYGSFKRVSSRPKDELGIYYVRVTPNRNNKSNFFPIRSHNKITYNNFEESGYIAWYTNVDIDIGLSEGHNIEYIPFDSYGNIGYSWSKKGKIFEKYIKDVLYKLKIKYEKQNNKVKRNVIKIIMNSLWGKFAQKWVNFEYFIKSEDDIDFESEEAYKIWDTDFMLIKKIKESTYSSKPIQNGVFTLSWARYHMKSIWDAGAKEGAECIYSDTDSIFVHKEHFKKNAKFMLNGLKVPIIGSEVGQLELECEFDKLLCAGKKQYMGFYTYFQDGKPCIKEKKRFKGIPSNYIIPELYAHLLSGADKEAKIQFLKFRREWGSVKGYIENKTVKAT | 1.72
I708L: TP-DNAP1 variant (protein) MDYKDKALNDLRNVYADFDSLPLDFRQILIKDRATLLQKEDVEKKILERQEDAKKYAEYLKQSEIPERISLPNIKRHKGVSISFEETSEDMVLEPRPFIFDGLNIRCFRRETIFSLKNKILNMVKESSSFKNVSRQSVSFMYFKIFNKGKVIASTKSVNIYEDKIDERLEDLCNNFDDVLKKIIDVTYGYESLFVSETYSYVIFYAKSIYFPQPRCVNNWGNNIPNILTFDSFKLFTANKNNVSCIKQCSRFLWQKDFNTLEEMIEYKNGNICIVTPQLHINDVRDIKSFNDIRLYSESPIKTFSVIDNTITYLFYFKEHLGVIFNITKSRHDRRVTKFSPLSKFSDVKNITVCFDIESYFDPEKESNQVNIPFICCASIIYNKVIGNIVDFEGRDCVAQMIEYVVDICGELNISSVELIAHNGGGYDFHYILSSMYNPAAIKNILIRNNSFISFNFAHDGVKFSVKDSYSFLLCSLANASKAFLNEETFKKTDFPHHDLKTADDLYKVYKEWSSVNTEINHVVEKEKLLITSEHIVNFTKNDKSKTLIEWSKDYCRNDVLVLSKVWLEFKNAVEDIFNCELVDQTMTLAGLSYKLFQANMPFDVELRHPNKEDYFNMREALIGGRCISVNGIYKDVLCLDVKSLYPASMAFYDQPYGSFKRVSSRPKDELGIYYVRVTPNRNNKSNFFPIRSHNKITYNNFEESTYLAWYTNVDIDIGLSEGHNIEYIPFDSYGNIGYSWSKKGKIFEKYIKDVLYKLKIKYEKQNNKVKRNVIKIIMNSLWGKFAQKWVNFEYFIKSEDDIDFESEEAYKIWDTDFMLIKKIKESTYSSKPIQNGVFTLSWARYHMKSIWDAGAKEGAECIYSDTDSIFVHKEHFKKNAKFMLNGLKVPIIGSEVGQLELECEFDKLLCAGKKQYMGFYTYFQDGKPCIKEKKRFKGIPSNYIIPELYAHLLSGADKEAKIQFLKFRREWGSVKGYIENKTVKAT | 2.16
T706P: TP-DNAP1 variant (protein) MDYKDKALNDLRNVYADFDSLPLDFRQILIKDRATLLQKEDVEKKILERQEDAKKYAEYLKQSEIPERISLPNIKRHKGVSISFEETSEDMVLEPRPFIFDGLNIRCFRRETIFSLKNKILNMVKESSSFKNVSRQSVSFMYFKIFNKGKVIASTKSVNIYEDKIDERLEDLCNNFDDVLKKIIDVTYGYESLFVSETYSYVIFYAKSIYFPQPRCVNNWGNNIPNILTFDSFKLFTANKNNVSCIKQCSRFLWQKDFNTLEEMIEYKNGNICIVTPQLHINDVRDIKSFNDIRLYSESPIKTFSVIDNTITYLFYFKEHLGVIFNITKSRHDRRVTKFSPLSKFSDVKNITVCFDIESYFDPEKESNQVNIPFICCASIIYNKVIGNIVDFEGRDCVAQMIEYVVDICGELNISSVELIAHNGGGYDFHYILSSMYNPAAIKNILIRNNSFISFNFAHDGVKFSVKDSYSFLLCSLANASKAFLNEETFKKTDFPHHDLKTADDLYKVYKEWSSVNTEINHVVEKEKLLITSEHIVNFTKNDKSKTLIEWSKDYCRNDVLVLSKVWLEFKNAVEDIFNCELVDQTMTLAGLSYKLFQANMPFDVELRHPNKEDYFNMREALIGGRCISVNGIYKDVLCLDVKSLYPASMAFYDQPYGSFKRVSSRPKDELGIYYVRVTPNRNNKSNFFPIRSHNKITYNNFEESPYIAWYTNVDIDIGLSEGHNIEYIPFDSYGNIGYSWSKKGKIFEKYIKDVLYKLKIKYEKQNNKVKRNVIKIIMNSLWGKFAQKWVNFEYFIKSEDDIDFESEEAYKIWDTDFMLIKKIKESTYSSKPIQNGVFTLSWARYHMKSIWDAGAKEGAECIYSDTDSIFVHKEHFKKNAKFMLNGLKVPIIGSEVGQLELECEFDKLLCAGKKQYMGFYTYFQDGKPCIKEKKRFKGIPSNYIIPELYAHLLSGADKEAKIQFLKFRREWGSVKGYIENKTVKAT | 1.73
I708E: TP-DNAP1 variant (protein) MDYKDKALNDLRNVYADFDSLPLDFRQILIKDRATLLQKEDVEKKILERQEDAKKYAEYLKQSEIPERISLPNIKRHKGVSISFEETSEDMVLEPRPFIFDGLNIRCFRRETIFSLKNKILNMVKESSSFKNVSRQSVSFMYFKIFNKGKVIASTKSVNIYEDKIDERLEDLCNNFDDVLKKIIDVTYGYESLFVSETYSYVIFYAKSIYFPQPRCVNNWGNNIPNILTFDSFKLFTANKNNVSCIKQCSRFLWQKDFNTLEEMIEYKNGNICIVTPQLHINDVRDIKSFNDIRLYSESPIKTFSVIDNTITYLFYFKEHLGVIFNITKSRHDRRVTKFSPLSKFSDVKNITVCFDIESYFDPEKESNQVNIPFICCASIIYNKVIGNIVDFEGRDCVAQMIEYVVDICGELNISSVELIAHNGGGYDFHYILSSMYNPAAIKNILIRNNSFISFNFAHDGVKFSVKDSYSFLLCSLANASKAFLNEETFKKTDFPHHDLKTADDLYKVYKEWSSVNTEINHVVEKEKLLITSEHIVNFTKNDKSKTLIEWSKDYCRNDVLVLSKVWLEFKNAVEDIFNCELVDQTMTLAGLSYKLFQANMPFDVELRHPNKEDYFNMREALIGGRCISVNGIYKDVLCLDVKSLYPASMAFYDQPYGSFKRVSSRPKDELGIYYVRVTPNRNNKSNFFPIRSHNKITYNNFEESTYEAWYTNVDIDIGLSEGHNIEYIPFDSYGNIGYSWSKKGKIFEKYIKDVLYKLKIKYEKQNNKVKRNVIKIIMNSLWGKFAQKWVNFEYFIKSEDDIDFESEEAYKIWDTDFMLIKKIKESTYSSKPIQNGVFTLSWARYHMKSIWDAGAKEGAECIYSDTDSIFVHKEHFKKNAKFMLNGLKVPIIGSEVGQLELECEFDKLLCAGKKQYMGFYTYFQDGKPCIKEKKRFKGIPSNYIIPELYAHLLSGADKEAKIQFLKFRREWGSVKGYIENKTVKAT | 2.41
I708A: TP-DNAP1 variant (protein) MDYKDKALNDLRNVYADFDSLPLDFRQILIKDRATLLQKEDVEKKILERQEDAKKYAEYLKQSEIPERISLPNIKRHKGVSISFEETSEDMVLEPRPFIFDGLNIRCFRRETIFSLKNKILNMVKESSSFKNVSRQSVSFMYFKIFNKGKVIASTKSVNIYEDKIDERLEDLCNNFDDVLKKIIDVTYGYESLFVSETYSYVIFYAKSIYFPQPRCVNNWGNNIPNILTFDSFKLFTANKNNVSCIKQCSRFLWQKDFNTLEEMIEYKNGNICIVTPQLHINDVRDIKSFNDIRLYSESPIKTFSVIDNTITYLFYFKEHLGVIFNITKSRHDRRVTKFSPLSKFSDVKNITVCFDIESYFDPEKESNQVNIPFICCASIIYNKVIGNIVDFEGRDCVAQMIEYVVDICGELNISSVELIAHNGGGYDFHYILSSMYNPAAIKNILIRNNSFISFNFAHDGVKFSVKDSYSFLLCSLANASKAFLNEETFKKTDFPHHDLKTADDLYKVYKEWSSVNTEINHVVEKEKLLITSEHIVNFTKNDKSKTLIEWSKDYCRNDVLVLSKVWLEFKNAVEDIFNCELVDQTMTLAGLSYKLFQANMPFDVELRHPNKEDYFNMREALIGGRCISVNGIYKDVLCLDVKSLYPASMAFYDQPYGSFKRVSSRPKDELGIYYVRVTPNRNNKSNFFPIRSHNKITYNNFEESTYAAWYTNVDIDIGLSEGHNIEYIPFDSYGNIGYSWSKKGKIFEKYIKDVLYKLKIKYEKQNNKVKRNVIKIIMNSLWGKFAQKWVNFEYFIKSEDDIDFESEEAYKIWDTDFMLIKKIKESTYSSKPIQNGVFTLSWARYHMKSIWDAGAKEGAECIYSDTDSIFVHKEHFKKNAKFMLNGLKVPIIGSEVGQLELECEFDKLLCAGKKQYMGFYTYFQDGKPCIKEKKRFKGIPSNYIIPELYAHLLSGADKEAKIQFLKFRREWGSVKGYIENKTVKAT | 2.55
T706W: TP-DNAP1 variant (protein) MDYKDKALNDLRNVYADFDSLPLDFRQILIKDRATLLQKEDVEKKILERQEDAKKYAEYLKQSEIPERISLPNIKRHKGVSISFEETSEDMVLEPRPFIFDGLNIRCFRRETIFSLKNKILNMVKESSSFKNVSRQSVSFMYFKIFNKGKVIASTKSVNIYEDKIDERLEDLCNNFDDVLKKIIDVTYGYESLFVSETYSYVIFYAKSIYFPQPRCVNNWGNNIPNILTFDSFKLFTANKNNVSCIKQCSRFLWQKDFNTLEEMIEYKNGNICIVTPQLHINDVRDIKSFNDIRLYSESPIKTFSVIDNTITYLFYFKEHLGVIFNITKSRHDRRVTKFSPLSKFSDVKNITVCFDIESYFDPEKESNQVNIPFICCASIIYNKVIGNIVDFEGRDCVAQMIEYVVDICGELNISSVELIAHNGGGYDFHYILSSMYNPAAIKNILIRNNSFISFNFAHDGVKFSVKDSYSFLLCSLANASKAFLNEETFKKTDFPHHDLKTADDLYKVYKEWSSVNTEINHVVEKEKLLITSEHIVNFTKNDKSKTLIEWSKDYCRNDVLVLSKVWLEFKNAVEDIFNCELVDQTMTLAGLSYKLFQANMPFDVELRHPNKEDYFNMREALIGGRCISVNGIYKDVLCLDVKSLYPASMAFYDQPYGSFKRVSSRPKDELGIYYVRVTPNRNNKSNFFPIRSHNKITYNNFEESWYIAWYTNVDIDIGLSEGHNIEYIPFDSYGNIGYSWSKKGKIFEKYIKDVLYKLKIKYEKQNNKVKRNVIKIIMNSLWGKFAQKWVNFEYFIKSEDDIDFESEEAYKIWDTDFMLIKKIKESTYSSKPIQNGVFTLSWARYHMKSIWDAGAKEGAECIYSDTDSIFVHKEHFKKNAKFMLNGLKVPIIGSEVGQLELECEFDKLLCAGKKQYMGFYTYFQDGKPCIKEKKRFKGIPSNYIIPELYAHLLSGADKEAKIQFLKFRREWGSVKGYIENKTVKAT | 1.73
